± gives the uncertainty stated by the source.

B1: Tyrosine-protein kinase BTK, residues 215 to 273; numbered along this chain, Q06187 (parent)
chain: ELKKVVALYDYMPMNANDLQLRKGDEYFILEESNLPWWRARDKNGQEGYIPSNYVTEAE

The variants in this series derive from B1. The experiment in a line: abundance fitness (aPCA) (normalised: wild type 0, dead -1); higher = more abundant; growth selection in yeast, the domain comes from the species named. Conditions: Homo sapiens.
Consider W37V, for which the abundance fitness worked out at 0.013 ± 0.037.
For W37K the value was 0.027 ± 0.056; for W37T, 0.036 ± 0.045; for W37Y, -0.018 ± 0.054.
In the case of Y49K, the abundance fitness is -0.056 ± 0.063.
For Y49P the value was -0.374 ± 0.054; for Y49Q, 0.064 ± 0.063.
As to Y49E, the abundance fitness is -0.088 ± 0.057.
In the case of Y49C, the abundance fitness was -0.024 ± 0.053.
With Y49I, the abundance fitness worked out at 0.001 ± 0.061.
For K43R, the abundance fitness is -0.033 ± 0.033.
Regarding K43I, the abundance fitness was found to be 0.049 ± 0.066.
For K43N, the abundance fitness was -0.018 ± 0.085.
Turning to K43A, the abundance fitness turned out to be 0.031 ± 0.038.
As to K43M, the abundance fitness was 0.021 ± 0.056.
Turning to K43Q, the abundance fitness came to 0.009 ± 0.057.
Take I29F: the abundance fitness was -0.799 ± 0.11.
For I29D the value was -0.704 ± 0.11; for I29A, -0.194 ± 0.046; for I29G, -0.847 ± 0.059.
For the variant I29Y, the abundance fitness is -1.02 ± 0.13.
Turning to I29P, the abundance fitness is -0.483 ± 0.05.
As for I29W, the abundance fitness was -0.855 ± 0.067.
Turning to N17K, the abundance fitness was -0.052 ± 0.058.
Consider N17S, for which the abundance fitness was -0.002 ± 0.035.
For N17H the value was 0.03 ± 0.068; for N17F, -0.029 ± 0.056.
The same measure for N17E: -0.024 ± 0.043.
As for N17C, the abundance fitness was -0.01 ± 0.056.
For N17A, the abundance fitness was -0.041 ± 0.035.
Turning to D10F, the abundance fitness was -0.758 ± 0.24.
Consider E47P, for which the abundance fitness is -0.473 ± 0.056.
For E47K the value was -0.107 ± 0.061; for E47Q, -0.113 ± 0.059.
For G45P the value was -1.05 ± 0.15; for G45I, -0.809 ± 0.15.
G45V: the abundance fitness is -0.641 ± 0.046.
For the variant G45A, the abundance fitness was -0.073 ± 0.04.
G45K: the abundance fitness was -0.125 ± 0.053.
With G45E, the abundance fitness was -0.156 ± 0.045.
On to G45C, for which the abundance fitness is -0.162 ± 0.064.
The same measure for G45Q: -0.144 ± 0.05.
Turning to Q46T, the abundance fitness was -0.048 ± 0.052.
For the variant Q46W, the abundance fitness is -0.161 ± 0.045.
Regarding Q46Y, the abundance fitness was -0.127 ± 0.087.
For the variant Q46S, the abundance fitness was -0.065 ± 0.043.
In the case of N15M, the abundance fitness is -0.03 ± 0.037.
Take N15A: the abundance fitness is -0.077 ± 0.034.
As to N15H, the abundance fitness is -0.048 ± 0.069.
For the variant N15E, the abundance fitness was -0.011 ± 0.037.
In the case of N15R, the abundance fitness was 0.026 ± 0.03.
For G24H the value was -0.178 ± 0.11.
The same measure for G24E: -0.276 ± 0.048; for G24Y: -0.193 ± 0.062; for G24T: -0.395 ± 0.053.
With G24A, the abundance fitness was -0.252 ± 0.039.
For G24L the value was -0.382 ± 0.035; for G24S, -0.226 ± 0.04; for G24V, -0.987 ± 0.056.
For G24M the value was -0.223 ± 0.045; for D25Y, -0.101 ± 0.059.
For D25F, the abundance fitness was -0.107 ± 0.063.
D25K: the abundance fitness is -0.067 ± 0.045.
As to D25L, the abundance fitness was -0.061 ± 0.036.
With Y54R, the abundance fitness is -0.078 ± 0.033.
As for Y54M, the abundance fitness came to 0.035 ± 0.066.
The same measure for Y54V: -0.203 ± 0.048; for Y54N: -0.266 ± 0.065; for Y54S: 0.022 ± 0.037.
As for Y54F, the abundance fitness turned out to be 0.101 ± 0.066.
Consider Y54Q, for which the abundance fitness was -0.153 ± 0.066.
For Y54G the value was 0.037 ± 0.042.
For the variant D18G, the abundance fitness is -0.038 ± 0.037.
For D18W the value was -0.07 ± 0.033.
On to D18Y, for which the abundance fitness was 0.025 ± 0.051.
The same measure for E59D: -0.128 ± 0.086; for E59G: 0.042 ± 0.056; for E59H: -0.054 ± 0.13.
As for E59K, the abundance fitness was -0.008 ± 0.08.
E59S: the abundance fitness was 0.067 ± 0.053.
Take E59P: the abundance fitness is -0.025 ± 0.1.
P51Q: the abundance fitness was -0.128 ± 0.055.
P51W: the abundance fitness was -0.164 ± 0.045.
Consider D42K, for which the abundance fitness was -0.575 ± 0.085.
Consider D42M, for which the abundance fitness was -0.498 ± 0.055.
The same measure for D42E: -0.23 ± 0.044.
For D42A the value was 0.017 ± 0.042; for D42I, -0.995 ± 0.14; for N44M, -0.061 ± 0.095.
With N44G, the abundance fitness worked out at 0.017 ± 0.046.
Regarding N44A, the abundance fitness was -0.041 ± 0.055.
For N44K the value was 0.07 ± 0.082; for N44S, -0.05 ± 0.049.
Consider N44Q, for which the abundance fitness is -0.016 ± 0.051.
In the case of Q20Y, the abundance fitness was -0.037 ± 0.066.
The same measure for Q20A: -0.007 ± 0.04; for Q20F: -0.2 ± 0.055.
With Q20N, the abundance fitness was -0.152 ± 0.065.
The same measure for Q20M: -0.073 ± 0.058.
The same measure for Q20E: -0.001 ± 0.059; for Q20C: -0.06 ± 0.059; for E57S: -0.009 ± 0.035.
Take E57K: the abundance fitness was -0.047 ± 0.053.
With E57I, the abundance fitness was -0.133 ± 0.13.
As to K4S, the abundance fitness was -0.1 ± 0.043.
For K4V the value was -0.079 ± 0.044.
As to K4E, the abundance fitness is -0.135 ± 0.054.
Regarding K4L, the abundance fitness was -0.089 ± 0.041.
For the variant K4R, the abundance fitness was -0.072 ± 0.041.
For K4W the value was -0.334 ± 0.047; for K4N, -0.339 ± 0.11.
The same measure for L19C: -0.444 ± 0.058; for L19R: -0.792 ± 0.042.
On to L19N, for which the abundance fitness is -0.701 ± 0.1.
With L19G, the abundance fitness was -0.851 ± 0.045.
As to L19S, the abundance fitness is -0.695 ± 0.042.
On to L19T, for which the abundance fitness is -0.75 ± 0.046.
For S33V the value was -0.054 ± 0.039; for S33A, 0.026 ± 0.046; for L30F, -0.038 ± 0.061.
For the variant L30R, the abundance fitness was -0.223 ± 0.031.
In the case of L30T, the abundance fitness was -0.03 ± 0.053.
For A16Y the value was -0.17 ± 0.06; for A16N, -0.045 ± 0.055; for A16E, 0.013 ± 0.042.
As to A16H, the abundance fitness is -0.026 ± 0.074.
A16R: the abundance fitness is -0.055 ± 0.028.
For A16I the value was -0.229 ± 0.058; for L35D, 0.05 ± 0.084.
In the case of L35P, the abundance fitness was determined as 0 ± 0.057.
As to L35K, the abundance fitness is -0.039 ± 0.047.
Regarding L35H, the abundance fitness was -0.002 ± 0.079.
The same measure for L35M: -0.028 ± 0.047; for L35S: -0.041 ± 0.037; for A58P: -0.001 ± 0.064.
For the variant A58N, the abundance fitness was -0.012 ± 0.073.
Regarding A58E, the abundance fitness is 0.08 ± 0.057.
Take A40F: the abundance fitness was -0.892 ± 0.1.
For the variant A40M, the abundance fitness is -0.334 ± 0.047.
As for A40K, the abundance fitness is -1.07 ± 0.18.
For A40I the value was -0.266 ± 0.076; for T56S, -0.03 ± 0.04.
The same measure for T56L: -0.086 ± 0.031.
With T56Q, the abundance fitness worked out at 0.043 ± 0.067.
On to T56D, for which the abundance fitness was 0.021 ± 0.062.
As to T56Y, the abundance fitness was -0.191 ± 0.064.
For T56A, the abundance fitness was determined as 0.033 ± 0.038.
For T56H, the abundance fitness worked out at 0.014 ± 0.087.
Consider E1D, for which the abundance fitness was -0.103 ± 0.075.
For the variant E1A, the abundance fitness is -0.172 ± 0.054.
Turning to E1W, the abundance fitness was -0.088 ± 0.079.

The values are drawn from the Human Domainome abundance scans (Beltran et al. 2025).
